Test results: patent publication US20240279318A1 (NANJING LEGEND BIOTECH, published 2024)
Residue numbers refer to the chain shown, from its start.

B1: AS170036 VL1VH1-56N98F108A (scFv)
scFv: QSALTQPRSVSGSPGQSVTISCAGTSSDVGSENYVSWYQQHPGKAPKLMIYQVNKRASGVPDRFSGSKSGNTASLTISGLQAEDEADYYCASYRSSDFNIVFGGGTKLTVLGGGGSGGGGSGGGGSEVQLVESGGGLVQPGGSLRLSCAASGFTFSSYAMSWVRQAPGKGLEWVSTINSGTNSPYYADSVKGRFTISRDNSKNTLYLQMNSLRAEDTAVYYCAKNFFDGSWFLAPPAMDYWGQGTLVTVSSHHHHHH
notes: also called 49-AS170036 VL1VH1-56N98F108A
B2: AS170036 VL1VH1-56N98F108S (scFv)
scFv: B1 scFv with A234S
notes: also called 51-AS170036 VL1VH1-56N98F108S
B3: AS170036 VL1VH1-56N98I108A (scFv)
scFv: B1 scFv with F98I
notes: also called 52-AS170036 VL1VH1-56N98I108A
B4: AS170036 VL1VH1-56N98I108D (scFv)
scFv: B1 scFv with F98I, A234D
notes: also called 53-AS170036 VL1VH1-56N98I108D
B5: AS170036 VL1VH1-56N98F108D (scFv)
scFv: B1 scFv with A234D
notes: also called 50-AS170036 VL1VH1-56N98F108D
B6: HS57K (scFv)
scFv: B1 scFv with F98H, N182G, S183K, A234G
notes: AS170036 VL1VH1 scFv mutein; also called AS170036 VL1VH1-VHS57K
B7: HG108Q (scFv)
scFv: B1 scFv with F98H, N182G, A234Q
notes: AS170036 VL1VH1 scFv mutein
B8: HS57A (scFv)
scFv: B1 scFv with F98H, N182G, S183A, A234G
notes: AS170036 VL1VH1 scFv mutein
B9: HS57Q (scFv)
scFv: B1 scFv with F98H, N182G, S183Q, A234G
notes: AS170036 VL1VH1 scFv mutein; also called AS170036 VL1VH1-VHS57Q
B10: HS57F (scFv)
scFv: B1 scFv with F98H, N182G, S183F, A234G
notes: AS170036 VL1VH1 scFv mutein
B11: HP110S (scFv)
scFv: B1 scFv with F98H, N182G, A234G, P236S
notes: AS170036 VL1VH1 scFv mutein
B12: HG108T (scFv)
scFv: B1 scFv with F98H, N182G, A234T
notes: AS170036 VL1VH1 scFv mutein
B13: HS57W (scFv)
scFv: B1 scFv with F98H, N182G, S183W, A234G
notes: AS170036 VL1VH1 scFv mutein
B14: HS57R (scFv)
scFv: B1 scFv with F98H, N182G, S183R, A234G
notes: AS170036 VL1VH1 scFv mutein; also called AS170036 VL1VH1-VHS57R
B15: HP110G (scFv)
scFv: B1 scFv with F98H, N182G, A234G, P236G
notes: AS170036 VL1VH1 scFv mutein
B16: HS57D (scFv)
scFv: B1 scFv with F98H, N182G, S183D, A234G
notes: AS170036 VL1VH1 scFv mutein
B17: HS57T (scFv)
scFv: B1 scFv with F98H, N182G, S183T, A234G
notes: AS170036 VL1VH1 scFv mutein
B18: HP110D (scFv)
scFv: B1 scFv with F98H, N182G, A234G, P236D
notes: AS170036 VL1VH1 scFv mutein
B19: HS57Y (scFv)
scFv: B1 scFv with F98H, N182G, S183Y, A234G
notes: AS170036 VL1VH1 scFv mutein
B20: HS57N (scFv)
scFv: B1 scFv with F98H, N182G, S183N, A234G
notes: AS170036 VL1VH1 scFv mutein
B21: HG108N (scFv)
scFv: B1 scFv with F98H, N182G, A234N
notes: AS170036 VL1VH1 scFv mutein; also called AS170036 VL1VH1-VHG108N
B22: HL107I (scFv)
scFv: B1 scFv with F98H, N182G, L233I, A234G
notes: AS170036 VL1VH1 scFv mutein
B23: HL107M (scFv)
scFv: B1 scFv with F98H, N182G, L233M, A234G
notes: AS170036 VL1VH1 scFv mutein
B24: HP58G (scFv)
scFv: B1 scFv with F98H, N182G, P184G, A234G
notes: AS170036 VL1VH1 scFv mutein
B25: HP110E (scFv)
scFv: B1 scFv with F98H, N182G, A234G, P236E
notes: AS170036 VL1VH1 scFv mutein
B26: HS57H (scFv)
scFv: B1 scFv with F98H, N182G, S183H, A234G
notes: AS170036 VL1VH1 scFv mutein; also called AS170036 VL1VH1-VHS57H
B27: HP110T (scFv)
scFv: B1 scFv with F98H, N182G, A234G, P236T
notes: AS170036 VL1VH1 scFv mutein
B28: HP58A (scFv)
scFv: B1 scFv with F98H, N182G, P184A, A234G
notes: AS170036 VL1VH1 scFv mutein
B29: HP58Q (scFv)
scFv: B1 scFv with F98H, N182G, P184Q, A234G
notes: AS170036 VL1VH1 scFv mutein
B30: HG108V (scFv)
scFv: B1 scFv with F98H, N182G, A234V
notes: AS170036 VL1VH1 scFv mutein
B31: HL107N (scFv)
scFv: B1 scFv with F98H, N182G, L233N, A234G
notes: AS170036 VL1VH1 scFv mutein
B32: HG108D (scFv)
scFv: B1 scFv with F98H, N182G, A234D
notes: AS170036 VL1VH1 scFv mutein; also called AS170036 VL1VH1-VHG108D
B33: HP110A (scFv)
scFv: B1 scFv with F98H, N182G, A234G, P236A
notes: AS170036 VL1VH1 scFv mutein
B34: HG108A (scFv)
scFv: B1 scFv with F98H, N182G
notes: AS170036 VL1VH1 scFv mutein; also called AS170036 VL1VH1-VHG108A
B35: HG108E (scFv)
scFv: B1 scFv with F98H, N182G, A234E
notes: AS170036 VL1VH1 scFv mutein; also called AS170036 VL1VH1-VHG108E
B36: HG108S (scFv)
scFv: B1 scFv with F98H, N182G, A234S
notes: AS170036 VL1VH1 scFv mutein; also called AS170036 VL1VH1-VHG108S
B37: HG108L (scFv)
scFv: B1 scFv with F98H, N182G, A234L
notes: AS170036 VL1VH1 scFv mutein
B38: HP110V (scFv)
scFv: B1 scFv with F98H, N182G, A234G, P236V
notes: AS170036 VL1VH1 scFv mutein
B39: HG108M (scFv)
scFv: B1 scFv with F98H, N182G, A234M
notes: AS170036 VL1VH1 scFv mutein; also called AS170036 VL1VH1-VHG108M
B40: HP58E (scFv)
scFv: B1 scFv with F98H, N182G, P184E, A234G
notes: AS170036 VL1VH1 scFv mutein
B41: HP110Q (scFv)
scFv: B1 scFv with F98H, N182G, A234G, P236Q
notes: AS170036 VL1VH1 scFv mutein
B42: HS57M (scFv)
scFv: B1 scFv with F98H, N182G, S183M, A234G
notes: AS170036 VL1VH1 scFv mutein; also called AS170036 VL1VH1-VHS57M

Each binder was assayed against T1, AFP158/HLA-A*02:01 complex (human) (assay: SPR, fold vs AS170036 VL1VH1;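 further: crude scFv muteins immobilised on a sensor chip, peptide–MHC complex passed over at several concentrations, binding then buffer-driven dissociation, KD estimated from on- and off-rates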).
T1 construct: flowed as analyte in SPR
Procedure: (§1) The experiment was carried out as follows. The crude scFv protein were captured onto the sensorchip. Different concentrations (320, 160, 40 nM) of AFP158/HLA-A*02:01 complex flowed over the sensorchip surface, and were allowed to bind the antibody fragment for 100 s followed by injection of the running buffer to allow dissociation of the complex. On-rate (kd) and off-rate (kd) were calculated based on association and dissociation curve, and were used to estimate the equilibrium dissociation constant (KD).
(§2) The crude scFv muteins were then subjected to SPR affinity measurement by the method mentioned above.

| Binder | Affinity increase [fold] |
| --- | --- |
| B1 | 41.7 |
| B2 | 17.6 |
| B3 | 62 |
| B4 | 44.4 |
| B5 | 36.4 |

These binders were tested against T2, AFP158/HLA-A*02:01 complex (human) (assay: SPR, KD ratio to AS170036 VL1VH1;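 further: crude scFv captured on a sensor chip, peptide–HLA complex passed over at several concentrations, association then buffer dissociation, KD derived from on- and off-rates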).
T2 construct: flowed over the chip in SPR; also called AFP158 pro
Procedure: as §1

| Binder | Affinity increase [fold] |
| --- | --- |
| B6 | 4.4 |
| B7 | 1.4 |
| B8 | 1.2 |
| B9 | 2.4 |
| B10 | 1.4 |
| B11 | 0.8 |
| B12 | 0.5 |
| B13 | 0.6 |
| B14 | 2.8 |
| B15 | 1 |
| B16 | 1.2 |
| B17 | 1.1 |
| B18 | 0.5 |
| B19 | 1.2 |
| B20 | 1.5 |
| B21 | 2 |
| B22 | 1.1 |
| B23 | 0.7 |
| B24 | 0.9 |

| Binder | Affinity increase [fold] |
| --- | --- |
| B25 | 1.8 |
| B26 | 6.9 |
| B27 | 1.3 |
| B28 | 0.7 |
| B29 | 0.5 |
| B30 | 0.7 |
| B31 | 0.5 |
| B32 | 5.5 |
| B33 | 1.3 |
| B34 | 5.5 |
| B35 | 4.1 |
| B36 | 2.8 |
| B37 | 1.4 |
| B38 | 0.6 |
| B39 | 4.7 |
| B40 | 0.5 |
| B41 | 0.9 |
| B42 | 2.7 |

These binders were tested against T2, AFP158/HLA-A*02:01 complex (assay: SPR, scFv captured, pMHC in flow;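 further: complex injected at several concentrations over crude scFv, association then running-buffer dissociation, KD estimated from kinetic on- and off-rate constants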).
Procedure: as §1

| Binder | Kd [nM] |
| --- | --- |
| B6 | 56 |
| B7 | 200 |
| B8 | 210 |
| B9 | 100 |
| B10 | 180 |
| B11 | 300 |
| B12 | 530 |
| B13 | 380 |
| B14 | 88 |
| B15 | 260 |
| B16 | 200 |
| B17 | 220 |
| B18 | 540 |
| B19 | 200 |
| B20 | 170 |
| B21 | 140 |
| B22 | 240 |
| B23 | 370 |
| B24 | 320 |

| Binder | Kd [nM] |
| --- | --- |
| B25 | 150 |
| B26 | 35 |
| B27 | 180 |
| B28 | 380 |
| B29 | 500 |
| B30 | 370 |
| B31 | 530 |
| B32 | 42 |
| B33 | 210 |
| B34 | 42 |
| B35 | 56 |
| B36 | 96 |
| B37 | 200 |
| B38 | 400 |
| B39 | 58 |
| B40 | 600 |
| B41 | 300 |
| B42 | 90 |

Each binder was assayed against T1, AFP158/HLA-A*02:01 complex (assay: SPR, crude scFv captured, pMHC analyte;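 further: complex injected at several concentrations over the chip, association phase then running buffer for dissociation, KD derived from on- and off-rates computed from both curves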).
Procedure: as §1, §2

| Binder | Kd [nM] | koff [s⁻¹] | kon [M⁻¹ s⁻¹] |
| --- | --- | --- | --- |
| B1 | 5.4 | 0.0015 | 270000 |
| B2 | 13 | 0.0028 | 210000 |
| B3 | 3.6 | 0.00093 | 260000 |
| B4 | 5.1 | 0.0014 | 280000 |
| B5 | 6.2 | 0.0019 | 310000 |
